Assay [1] concerns the target Xenopus laevis histone H3 labelled with Oregon Green 488 at C110 (Xenopus laevis) (UniProt P84233). Kind of assay: fluorescence polarisation; fluorescence anisotropy; 5 nM OG488-labeled histone, ligase complex titrated; 20 mM Tris-HCl, 10 mM NaCl, 5% glycerol, 1 mM DTT; BSA-coated 96-well plates, 25 °C, 1.5-2.5 h. On the technique in general: Polarisation of emitted light reports the rotation of a fluorescent probe.

The target of assay [2] is Xenopus laevis histone H4 V22C labelled with Oregon Green 488 (Xenopus laevis) (UniProt P62799). The description is as above.

Take “CUL5-RBX2 (from UniProt Q93034 1-780; Q9UBF6 1-113) (complex)”: the fold lower affinity than ASB9-CRL in assay [1] and in assay [2] was 2 fold in each case. The fold lower affinity than NEDD8-ASB9-CRL in assay [1] and in assay [2] was 4 fold each time.

As usually defined, the Kd is the constant that tells how readily two partners part at equilibrium. The low end stands for higher affinity, the high end for lower affinity. Turning to “ASB9-ELOB/C-CUL5-RBX2 (ASB9-CRL), not neddylated (from UniProt Q96DX5 1-294; Q15370 1-118; Q15369 1-112; Q93034 1-780; Q9UBF6 1-113) (complex)”, the equilibrium dissociation constant (Kd) is 187 nM in assay [1] and 79.7 nM in assay [2].

Consider “NEDD8-ASB9-ELOB/C-CUL5-RBX2 (NEDD8-ASB9-CRL) (from UniProt Q96DX5 1-294; Q15370 1-118; Q15369 1-112; Q93034 1-780; Q9UBF6 1-113; Q15843 1-76) (complex)”, for which the Kd in assay [1] came to 78.2 nM; in assay [2], 48.4 nM.

Source of the values: doi:10.1101/2025.05.21.655409.
